This test concerns the target Nfs1/Isd11/Isu2 (SDU) complex (Homo sapiens, UniProt Q9Y697). Put plainly: cysteine desulfurase activity titration.

Here are results for one molecule from paper PMC3319458 (2012).

B1: Frataxin 82-210 (protein)
chain: GTLGHPGSLDETTYERLAEETLDSLAEFFEDLADKPYTFEDYDVSFGSGVLTVKLGGDLGTYVINKQTPNKQIWLSSPSSGPKRYDWTGKNWVYSHDGVSLHELLAAELTKALKTKLDLSSLAYSGKDA
In turn, B1 had a Kd of 220 nM.

One may read the Kd as the free concentration of one partner at which half of the binding sites on the other are occupied at equilibrium, for simple one-to-one binding.
